Laboratory results taken from the supplement of paper PMC10567573.

B1: BTBD1 (parent)
chain: TSAEIELPDVEPAAFLALLRFLYS

Variants of: B1
Experiment: protein stability index of a GFP-peptide fusion (GPS, HEK-293T) (PSI 1-6); higher = more stable
Conditions: c terminus: a fixed tail appended
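Note: lentivirally expressed fusions sorted by FACS into six bins by GFP to DsRed ratio, PSI derived from sequencing read proportions per bin multiplied by bin number.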

| Variant | protein stability index |
| --- | --- |
| TSAEIELPDVEKAAFLALLRFLYS [P12K] | 1.61 |
| TSAEIELPDVEHAAFLALLRFLYS [P12H] | 2.15 |
| TSAEIELPDVERAAFLALLRFLYS [P12R] | 1.93 |
| TSAEIELPDVEFAAFLALLRFLYS [P12F] | 1.84 |
| TSAEIELPDVESAAFLALLRFLYS [P12S] | 2.46 |
| TSAEIELPDVECAAFLALLRFLYS [P12C] | 2.3 |
| TSAEIDLPDVEPAAFLALLRFLYS [E6D] | 2.07 |
| TSAEIKLPDVEPAAFLALLRFLYS [E6K] | 2.13 |
| TSAEIGLPDVEPAAFLALLRFLYS [E6G] | 1.75 |
| TSAEIILPDVEPAAFLALLRFLYS [E6I] | 2.82 |
| TRAEIELPDVEPAAFLALLRFLYS [S2R] | 2.09 |
| TCAEIELPDVEPAAFLALLRFLYS [S2C] | 2.05 |
| TKAEIELPDVEPAAFLALLRFLYS [S2K] | 2.39 |
| TQAEIELPDVEPAAFLALLRFLYS [S2Q] | 2.24 |
| TNAEIELPDVEPAAFLALLRFLYS [S2N] | 1.49 |
| TSAEIELPDVEPAAFLMLLRFLYS [A17M] | 1.62 |
| TSAEIELPDVEPAAFLTLLRFLYS [A17T] | 2.38 |
| TSAEIELPDVEPAAFLGLLRFLYS [A17G] | 2.27 |
| TSAEIELPDVEPAAFLILLRFLYS [A17I] | 1.4 |
| TSAEIELPDVEPAAFLQLLRFLYS [A17Q] | 1.61 |
| TSAEIELPDVEPAAWLALLRFLYS [F15W] | 2.89 |
| TSAEIELPDVEPAAVLALLRFLYS [F15V] | 1.75 |
| TSAEIELPDVEPAARLALLRFLYS [F15R] | 2.2 |
| TSAEIELPDVEPAAFLALLRFLES [Y23E] | 1.9 |

| Variant | protein stability index |
| --- | --- |
| TSAEIELPDVEPAAFLALLRFLKS [Y23K] | 2.1 |
| TSAEIELPDVEPAAFLALLRFLCS [Y23C] | 1.79 |
| TSAEIELPDVEPAAFLALLRFLIS [Y23I] | 1.97 |
| TSAEIELPDVEPAAFLALLRFLWS [Y23W] | 1.99 |
| TSAEIELPDVEPAAFLALLRFLDS [Y23D] | 1.49 |
| TSAEIELPDVEPAAFLALLRFLRS [Y23R] | 2.26 |
| TSAEIELPDVEPACFLALLRFLYS [A14C] | 1.84 |
| TSAEIELPDVEPAWFLALLRFLYS [A14W] | 2.2 |
| TSAEIELPDVEPATFLALLRFLYS [A14T] | 1.8 |
| YSAEIELPDVEPAAFLALLRFLYS [T1Y] | 1.97 |
| ESAEIELPDVEPAAFLALLRFLYS [T1E] | 1.66 |
| TSAEIELPDVEPAAFLALDRFLYS [L19D] | 3.54 |
| TSAEIELPDVEPAAFLALMRFLYS [L19M] | 2.05 |
| TSAEIELPDVEPAAFLALHRFLYS [L19H] | 2.05 |
| TSAEIELPDVEPAAFLALWRFLYS [L19W] | 1.98 |
| TSAHIELPDVEPAAFLALLRFLYS [E4H] | 1.56 |
| TSANIELPDVEPAAFLALLRFLYS [E4N] | 1.44 |
| TSAVIELPDVEPAAFLALLRFLYS [E4V] | 1.55 |
| TSAEIELPDVSPAAFLALLRFLYS [E11S] | 1.73 |
| TSAEIELPDVLPAAFLALLRFLYS [E11L] | 1.88 |
| TSAEIELPDVMPAAFLALLRFLYS [E11M] | 1.32 |
| TSAEIELPPVEPAAFLALLRFLYS [D9P] | 2.4 |
| TSAEIELPMVEPAAFLALLRFLYS [D9M] | 2.11 |
| TSAEIEMPDVEPAAFLALLRFLYS [L7M] | 2.08 |

| Variant | protein stability index |
| --- | --- |
| TSAEIEGPDVEPAAFLALLRFLYS [L7G] | 1.89 |
| TSAEIEDPDVEPAAFLALLRFLYS [L7D] | 2.15 |
| TSAEIELPDVEPWAFLALLRFLYS [A13W] | 2.18 |
| TSAEIELPDVEPFAFLALLRFLYS [A13F] | 1.55 |
| TSAEIELPDVEPCAFLALLRFLYS [A13C] | 1.88 |
| TSAEIELPDVEPMAFLALLRFLYS [A13M] | 2.02 |
| TSAEIELPDVEPKAFLALLRFLYS [A13K] | 2.43 |
| TSAEIELPDVEPGAFLALLRFLYS [A13G] | 1.77 |
| TSAEIELPDVEPAAFLAMLRFLYS [L18M] | 1.72 |
| TSAEIELPDVEPAAFLAPLRFLYS [L18P] | 2.11 |
| TSAEIELPDVEPAAFLARLRFLYS [L18R] | 2.03 |
| TSAEIELPDVEPAAFLAFLRFLYS [L18F] | 1.73 |
| TSAEIELWDVEPAAFLALLRFLYS [P8W] | 1.53 |
| TSAEIELVDVEPAAFLALLRFLYS [P8V] | 2.48 |
| TSAEIELLDVEPAAFLALLRFLYS [P8L] | 1.26 |
| TSAEIELDDVEPAAFLALLRFLYS [P8D] | 1.95 |
| TSAEIELKDVEPAAFLALLRFLYS [P8K] | 1.46 |
| TSAEIELGDVEPAAFLALLRFLYS [P8G] | 1.96 |
| TSAEIELPDVEPAAFLALLRFLYR [S24R] | 2.44 |
| TSAEIELPDVEPAAFLALLRFLYH [S24H] | 1.72 |
| TSAEIELPDVEPAAFLALLRFLYG [S24G] | 2.86 |
| TSAEIELPDVEPAAFLALLRFLYV [S24V] | 2.1 |
| TSAEIELPDVEPAAFLALLRFLYM [S24M] | 2.37 |
| TSAEIELPDVEPAAFLALLNFLYS [R20N] | 1.71 |

| Variant | protein stability index |
| --- | --- |
| TSAEIELPDVEPAAFLALLMFLYS [R20M] | 2.54 |
| TSAEIELPDVEPAAFLALLHFLYS [R20H] | 1.79 |
| TSAEIELPDVEPAAFAALLRFLYS [L16A] | 2.19 |
| TSAEIELPDVEPAAFKALLRFLYS [L16K] | 1.47 |
| TSGEIELPDVEPAAFLALLRFLYS [A3G] | 2.66 |
| TSFEIELPDVEPAAFLALLRFLYS [A3F] | 1.58 |
| TSYEIELPDVEPAAFLALLRFLYS [A3Y] | 1.83 |
| TSIEIELPDVEPAAFLALLRFLYS [A3I] | 2.26 |
| TSAEIELPDVEPAAFLALLRDLYS [F21D] | 1.85 |
| TSAEIELPDVEPAAFLALLRNLYS [F21N] | 1.69 |
| TSAEIELPDVEPAAFLALLRRLYS [F21R] | 2.25 |
| TSAEIELPDVEPAAFLALLRWLYS [F21W] | 2.41 |
| TSAEIELPDVEPAAFLALLRPLYS [F21P] | 1.8 |
| TSAEMELPDVEPAAFLALLRFLYS [I5M] | 1.89 |
| TSAEYELPDVEPAAFLALLRFLYS [I5Y] | 1.95 |
| TSAESELPDVEPAAFLALLRFLYS [I5S] | 1.94 |
| TSAELELPDVEPAAFLALLRFLYS [I5L] | 1.75 |
| TSAEVELPDVEPAAFLALLRFLYS [I5V] | 1.75 |
| TSAEIELPDVEPAAFLALLRFCYS [L22C] | 1.64 |
| TSAEIELPDVEPAAFLALLRFDYS [L22D] | 1.87 |
| TSAEIELPDVEPAAFLALLRFTYS [L22T] | 1.98 |
| TSAEIELPDVEPAAFLALLRFHYS [L22H] | 1.96 |
